According to PMC6555819, “Comprehensive study of nuclear receptor DNA binding provides a revised framework for understanding receptor specificity”:
Substitutions are numbered along the chain they refer to.

B1: NRC3_wobSeed67_DR2_o1 (dsDNA)
DNA 1: GCCCAGACAGGTGAGAAGGTAACTCAGCCTCGATTAGCGATTGACAGCGTAGAATGAAGG
DNA 2: CCTTCATTCTACGCTGTCAATCGCTAATCGAGGCTGAGTTACCTTCTCACCTGTCTGGGC
B2: NRC3_random_hg19_316_o1 (dsDNA)
DNA 1: GCCAAAGACAGCTTTGCAAGGCCACTTCTGTTTGCTGCGATTGACAGCGTAGAATGAAGG
DNA 2: CCTTCATTCTACGCTGTCAATCGCAGCAAACAGAAGTGGCCTTGCAAAGCTGTCTTTGGC
B3: NRC3_wobSeed101_DR4_A14C_o1 (dsDNA)
DNA 1: GCCCTTACGGGTCCCTCCAGGTTATAGCATCGGAGTGCGATTGACAGCGTAGAATGAAGG
DNA 2: CCTTCATTCTACGCTGTCAATCGCACTCCGATGCTATAACCTGGAGGGACCCGTAAGGGC
B4: NRC3_wobSeed87_DR3_A14G_o1 (dsDNA)
DNA 1: GCCGAACTAGGTCGTCCAGGACAGTGAATACATTGAGCGATTGACAGCGTAGAATGAAGG
DNA 2: CCTTCATTCTACGCTGTCAATCGCTCAATGTATTCACTGTCCTGGACGACCTAGTTCGGC
B5: NRC3_wobSeed87_DR3_G10C_o1 (dsDNA)
DNA 1: B4 DNA 1 with G10C, G14A
DNA 2: B4 DNA 2 with C47T, C51G
B6: NRC3_wobSeed90_DR3_A14G_o1 (dsDNA)
DNA 1: GCCATACAGGGTCGGCTAGGCCAGAGTAGGGACGGCGCGATTGACAGCGTAGAATGAAGG
DNA 2: CCTTCATTCTACGCTGTCAATCGCGCCGTCCCTACTCTGGCCTAGCCGACCCTGTATGGC
B7: NRC3_random_hg19_245_o1 (dsDNA)
DNA 1: GCATGTTCCTTTACCCTAGCTGCAGTGGGTATCCACGCGATTGACAGCGTAGAATGAAGG
DNA 2: CCTTCATTCTACGCTGTCAATCGCGTGGATACCCACTGCAGCTAGGGTAAAGGAACATGC
B8: NRC3_wobSeed88_DR3_G10A_o1 (dsDNA)
DNA 1: GCTAGCCTAAGTCATGCGGGCCAGTATAGTGTCGGCGCGATTGACAGCGTAGAATGAAGG
DNA 2: CCTTCATTCTACGCTGTCAATCGCGCCGACACTATACTGGCCCGCATGACTTAGGCTAGC
B9: NRC3_wobSeed63_DR2_A14G_o1 (dsDNA)
DNA 1: GCCGAACTAGGTCGCCAGGACAGTGAAGAGGTTGGAGCGATTGACAGCGTAGAATGAAGG
DNA 2: CCTTCATTCTACGCTGTCAATCGCTCCAACCTCTTCACTGTCCTGGCGACCTAGTTCGGC
B10: NRC3_wobSeed82_DR3_G14C_o1 (dsDNA)
DNA 1: GCATCGAAAGGTCCACGAGGTGAGTATACACCGTTTGCGATTGACAGCGTAGAATGAAGG
DNA 2: CCTTCATTCTACGCTGTCAATCGCAAACGGTGTATACTCACCTCGTGGACCTTTCGATGC
B11: NRC3_wobSeed46_DR1_A16C_o1 (dsDNA)
DNA 1: GCTTACCAAGGTGAACGGTCGTTGATGCACGCCTTGGCGATTGACAGCGTAGAATGAAGG
DNA 2: CCTTCATTCTACGCTGTCAATCGCCAAGGCGTGCATCAACGACCGTTCACCTTGGTAAGC
B12: NRC3_wobSeed93_DR3_C13T_o1 (dsDNA)
DNA 1: GCAGTCAAAGTTTATCTAGGTAACGTAAGATATGCTGCGATTGACAGCGTAGAATGAAGG
DNA 2: CCTTCATTCTACGCTGTCAATCGCAGCATATCTTACGTTACCTAGATAAACTTTGACTGC
B13: NRC3_wobSeed93_DR3_T12G_o1 (dsDNA)
DNA 1: B12 DNA 1 with T12G, T13C
DNA 2: B12 DNA 2 with A48G, A49C
B14: NRC3_wobSeed66_DR2_C13A_o1 (dsDNA)
DNA 1: GCAATACAGGGTAACTAGGCCAGAGTAGGTACGAATGCGATTGACAGCGTAGAATGAAGG
DNA 2: CCTTCATTCTACGCTGTCAATCGCATTCGTACCTACTCTGGCCTAGTTACCCTGTATTGC
B15: NRC3_random_hg19_475_o1 (dsDNA)
DNA 1: GCATGAAAGTTTAGTATGTGTAGGGTAGTGCTTCATGCGATTGACAGCGTAGAATGAAGG
DNA 2: CCTTCATTCTACGCTGTCAATCGCATGAAGCACTACCCTACACATACTAAACTTTCATGC
B16: NRC3_wobSeed141_DR5_G10C_o1 (dsDNA)
DNA 1: GCAGTCAAACTTCAGGACGAGGTAACGTAAAGCACGGCGATTGACAGCGTAGAATGAAGG
DNA 2: CCTTCATTCTACGCTGTCAATCGCCGTGCTTTACGTTACCTCGTCCTGAAGTTTGACTGC
B17: NRC3_random_hg19_210_o1 (dsDNA)
DNA 1: GCATCATTTGCTCTGGGTGAAGCCAGCTACCATGTTGCGATTGACAGCGTAGAATGAAGG
DNA 2: CCTTCATTCTACGCTGTCAATCGCAACATGGTAGCTGGCTTCACCCAGAGCAAATGATGC
B18: NRC3_wobSeed122_DR5_G21T_o1 (dsDNA)
DNA 1: GCGCTAGTTGGTCAGTAAAATGTCACACACCGGTCGGCGATTGACAGCGTAGAATGAAGG
DNA 2: CCTTCATTCTACGCTGTCAATCGCCGACCGGTGTGTGACATTTTACTGACCAACTAGCGC
B19: NRC3_wobSeed21_DR0_T12C_o1 (dsDNA)
DNA 1: GCCGTCAAAGTCCAAGGTAACGTAACAGAAAGCAGCGCGATTGACAGCGTAGAATGAAGG
DNA 2: CCTTCATTCTACGCTGTCAATCGCGCTGCTTTCTGTTACGTTACCTTGGACTTTGACGGC
B20: NRC3_wobSeed21_DR0_T11A_o1 (dsDNA)
DNA 1: B19 DNA 1 with T11A, C12T
DNA 2: B19 DNA 2 with G49A, A50T
B21: NRC3_random_hg19_15_o1 (dsDNA)
DNA 1: GCGTTGGTCAGCTGGTCTCGAACTCCTGACCTCAAGGCGATTGACAGCGTAGAATGAAGG
DNA 2: CCTTCATTCTACGCTGTCAATCGCCTTGAGGTCAGGAGTTCGAGACCAGCTGACCAACGC
B22: NRC3_random_hg19_137_o1 (dsDNA)
DNA 1: GCCTCACGTGTTTCCTGGTAGAAATGCAGAGTACAAGCGATTGACAGCGTAGAATGAAGG
DNA 2: CCTTCATTCTACGCTGTCAATCGCTTGTACTCTGCATTTCTACCAGGAAACACGTGAGGC
B23: NRC3_wobSeed45_DR1_A9C_o1 (dsDNA)
DNA 1: GCTGTCAACGTTCAAAGGTAACGTAAGTATCCACACGCGATTGACAGCGTAGAATGAAGG
DNA 2: CCTTCATTCTACGCTGTCAATCGCGTGTGGATACTTACGTTACCTTTGAACGTTGACAGC
B24: NRC3_random_hg19_295_o1 (dsDNA)
DNA 1: GCGAGGTTGCAGAGATGTTCTCACTAAACATTCGTTGCGATTGACAGCGTAGAATGAAGG
DNA 2: CCTTCATTCTACGCTGTCAATCGCAACGAATGTTTAGTGAGAACATCTCTGCAACCTCGC
B25: NRC3_wobSeed15_DR0_A14G_o1 (dsDNA)
DNA 1: GCCGAACTAGGTCGAGGACAGTGAATCTCCGCACGCGCGATTGACAGCGTAGAATGAAGG
DNA 2: CCTTCATTCTACGCTGTCAATCGCGCGTGCGGAGATTCACTGTCCTCGACCTAGTTCGGC
B26: NRC3_wobSeed41_DR1_G17C_o1 (dsDNA)
DNA 1: GCATATGTAGGTTAAGCGTCATTCAGGTTGGTTCGCGCGATTGACAGCGTAGAATGAAGG
DNA 2: CCTTCATTCTACGCTGTCAATCGCGCGAACCAACCTGAATGACGCTTAACCTACATATGC
B27: NRC3_wobSeed136_DR5_T12G_o1 (dsDNA)
DNA 1: GCTAGCCTAGGGCATTCAGGGGCCAGTATAGAAAGCGCGATTGACAGCGTAGAATGAAGG
DNA 2: CCTTCATTCTACGCTGTCAATCGCGCTTTCTATACTGGCCCCTGAATGCCCTAGGCTAGC
B28: NRC3_random_hg19_148_o1 (dsDNA)
DNA 1: GCTGTGTCACCATGAGCAATCCAACCAGGCATCCCAGCGATTGACAGCGTAGAATGAAGG
DNA 2: CCTTCATTCTACGCTGTCAATCGCTGGGATGCCTGGTTGGATTGCTCATGGTGACACAGC
B29: NRC3_random_hg19_395_o1 (dsDNA)
DNA 1: GCGTACAATTGCCCTCTTAGCAGAGTTCTGGTGCATGCGATTGACAGCGTAGAATGAAGG
DNA 2: CCTTCATTCTACGCTGTCAATCGCATGCACCAGAACTCTGCTAAGAGGGCAATTGTACGC
B30: NRC3_wobSeed138_DR5_A14G_o1 (dsDNA)
DNA 1: GCGATACAGGGTCGGCTAGAGGCCAGAGTATGGAAAGCGATTGACAGCGTAGAATGAAGG
DNA 2: CCTTCATTCTACGCTGTCAATCGCTTTCCATACTCTGGCCTCTAGCCGACCCTGTATCGC
B31: NRC3_wobSeed59_DR2_o1 (dsDNA)
DNA 1: GCTCTATTAGTTGATTAGGGCAACCGAAACAGCGGAGCGATTGACAGCGTAGAATGAAGG
DNA 2: CCTTCATTCTACGCTGTCAATCGCTCCGCTGTTTCGGTTGCCCTAATCAACTAATAGAGC
B32: NRC3_wobSeed39_DR1_A14T_o1 (dsDNA)
DNA 1: GCCGAACTAGGTCTAAGGACAGTGAAAGGCGACGTAGCGATTGACAGCGTAGAATGAAGG
DNA 2: CCTTCATTCTACGCTGTCAATCGCTACGTCGCCTTTCACTGTCCTTAGACCTAGTTCGGC
B33: NRC3_random_hg19_361_o1 (dsDNA)
DNA 1: GCAAACTGGGAGGTGGAGGTTGTAGTAAGCCAAGATGCGATTGACAGCGTAGAATGAAGG
DNA 2: CCTTCATTCTACGCTGTCAATCGCATCTTGGCTTACTACAACCTCCACCTCCCAGTTTGC

Molecular target: FXR:RXRa (Homo sapiens, UniProt Q96RI1;P19793 full;full)
Sequence (Q96RI1 whole entry, chain 1 of 2): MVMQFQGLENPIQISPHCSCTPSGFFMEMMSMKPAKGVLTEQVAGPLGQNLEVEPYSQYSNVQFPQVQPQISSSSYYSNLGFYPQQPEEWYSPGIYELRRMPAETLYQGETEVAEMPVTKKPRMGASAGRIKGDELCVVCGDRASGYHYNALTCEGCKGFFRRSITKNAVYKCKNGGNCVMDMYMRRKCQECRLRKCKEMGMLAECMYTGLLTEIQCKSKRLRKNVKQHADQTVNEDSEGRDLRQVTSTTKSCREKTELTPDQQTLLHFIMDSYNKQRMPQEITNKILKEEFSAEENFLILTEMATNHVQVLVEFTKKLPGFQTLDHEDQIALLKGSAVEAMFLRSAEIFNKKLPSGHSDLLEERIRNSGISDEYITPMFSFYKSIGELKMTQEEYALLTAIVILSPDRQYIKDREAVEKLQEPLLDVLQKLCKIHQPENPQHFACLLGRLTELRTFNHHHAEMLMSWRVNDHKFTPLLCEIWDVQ
Sequence (P19793 whole entry, chain 2 of 2): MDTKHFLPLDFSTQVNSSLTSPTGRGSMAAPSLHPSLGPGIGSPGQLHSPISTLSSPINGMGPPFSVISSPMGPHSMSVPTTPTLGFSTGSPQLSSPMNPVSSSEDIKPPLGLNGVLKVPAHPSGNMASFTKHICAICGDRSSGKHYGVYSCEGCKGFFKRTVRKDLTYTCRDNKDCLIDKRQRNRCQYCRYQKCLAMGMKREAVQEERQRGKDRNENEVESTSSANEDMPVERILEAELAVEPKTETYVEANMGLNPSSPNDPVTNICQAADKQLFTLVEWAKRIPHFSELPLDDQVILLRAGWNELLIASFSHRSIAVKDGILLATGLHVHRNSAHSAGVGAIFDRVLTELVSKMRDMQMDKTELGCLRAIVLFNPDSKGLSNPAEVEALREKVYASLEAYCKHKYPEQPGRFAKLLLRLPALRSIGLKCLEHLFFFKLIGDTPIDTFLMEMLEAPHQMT
Assay: no ligand; PBM; 270 nM : 90 nM RXRa; PBS pH 7.4, 2% milk, 0.02% Triton X-100, 1 mM DTT, BSA, 0.4 mg/ml salmon testes DNA
Conditions: tags: His kept;His cleaved; copies: 1;1; label: surface-attached array probe
In short: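 Binding buffer was PBS pH 7.4 with 2% milk, 0.02% Triton X-100, 1 mM DTT, 0.2 mg/mL BSA and 0.4 mg/ml salmon testes DNA. In it, ligand-free nuclear receptor dimers were incubated 1 h on custom Agilent 4×180K protein-binding microarrays carrying double-stranded probes. Antibodies against each partner (one per run) detected binding, and z-scores were calculated against random background probes after regression normalization of scanned fluorescence.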

Going from B1 to B2, the binding signal falls from 0.47 PBM z-score against 500 random probes to -0.15 PBM z-score against 500 random probes.

First: B3
Second: B4
The binding signal of the first is lower: 0.32 PBM z-score against 500 random probes for the first, 0.36 PBM z-score against 500 random probes for the second.

Going from B5 to B6, the binding signal falls from 0.27 PBM z-score against 500 random probes to 0.13 PBM z-score against 500 random probes.

Going from B7 to B8, the binding signal falls from 0.41 PBM z-score against 500 random probes to -0.37 PBM z-score against 500 random probes.

First: B9
Second: B10
The binding signal of the first is lower: 0.16 PBM z-score against 500 random probes for the first, 0.48 PBM z-score against 500 random probes for the second.

Going from B11 to B12, the binding signal falls from 0.48 PBM z-score against 500 random probes to 0.4 PBM z-score against 500 random probes.

Compared with B13, B14 is lower in binding signal: 0.12 PBM z-score against 500 random probes for the first, -0.01 PBM z-score against 500 random probes for the second.

First: B15
Second: B16
The binding signal of the first is higher: 0.26 PBM z-score against 500 random probes for the first, 0.23 PBM z-score against 500 random probes for the second.

Compared with B17, B18 is higher in binding signal: -0.02 PBM z-score against 500 random probes for the first, 0.1 PBM z-score against 500 random probes for the second.

First: B19
Second: B20
The binding signal of the first is higher: 0.2 PBM z-score against 500 random probes for the first, 0.1 PBM z-score against 500 random probes for the second.

First: B21
Second: B22
The binding signal of the first is higher: 0.16 PBM z-score against 500 random probes for the first, 0.08 PBM z-score against 500 random probes for the second.

Compared with B23, B24 is lower in binding signal: 0.46 PBM z-score against 500 random probes for the first, 0.03 PBM z-score against 500 random probes for the second.

Going from B25 to B26, the binding signal rises from 0.21 PBM z-score against 500 random probes to 0.45 PBM z-score against 500 random probes.

Going from B27 to B28, the binding signal rises from -0.08 PBM z-score against 500 random probes to -0.04 PBM z-score against 500 random probes.

Compared with B29, B30 is higher in binding signal: 0.09 PBM z-score against 500 random probes for the first, 0.37 PBM z-score against 500 random probes for the second.

First: B31
Second: B32
The binding signal of the first is higher: 0.48 PBM z-score against 500 random probes for the first, 0.18 PBM z-score against 500 random probes for the second.

With B33 the binding signal was 0.3 PBM z-score against 500 random probes.
